Values of other authors as cited in publication PMC4954776.

Molecular target: BRAF kinase domain 448-723 (Homo sapiens) (UniProt P15056)
Assay: sedimentation equilibrium

Chain of BRAF kinase domain 448-723 (P15056 448-723): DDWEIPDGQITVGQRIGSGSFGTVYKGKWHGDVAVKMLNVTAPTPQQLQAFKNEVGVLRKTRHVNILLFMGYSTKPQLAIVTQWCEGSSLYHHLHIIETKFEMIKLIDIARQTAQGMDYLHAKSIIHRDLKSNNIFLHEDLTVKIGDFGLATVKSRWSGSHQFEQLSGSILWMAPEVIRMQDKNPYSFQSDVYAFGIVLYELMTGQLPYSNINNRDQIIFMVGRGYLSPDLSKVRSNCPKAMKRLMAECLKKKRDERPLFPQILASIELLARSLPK

Kd: < 6.25 µM
Substance: BRAF kinase domain 448-723 (from UniProt P15056)
